Measurements from article PMC10388152 (PNAS Nexus, 2023).

Biological target: the molecule itself
Assay: dynamic light scattering

B1: C-terminal truncated ScBfr (ScBfr 1-152: residues 153-167 removed) (domain or fragment, Streptomyces coelicolor, UniProt Q9S2N0 1-152, looked up)
chain: MQGDPEVIEFLNEQLTAELTAINQYFLHAKLQDHKGWTKLAKYTRAESFDEMRHAEVLTDRILLLDGLPNYQRLFHVRVGQSVTEMFQADREVELEAIDRLRRGIEVMRAKHDITSANVFEAILADEEHHIDYLETQLDLIEKLGESLYLST
- stoichiometry N: 24
